Test results as given in patent publication US20140274782A1, “AFFINITY REAGENTS AND METHODS FOR DETECTION, PURIFICATION, AND PROTEOMIC ANALYSIS OF METHYLATED PROTEINS” (The Board of Trustees of the Leland Stanford Junior …, priority 2013, published 2014).

B1: SMC1A (protein, UniProt Q14683 1-1233, looked up)
Structural maintenance of …: MGFLKLIEIENFKSYKGRQIIGPFQRFTAIIGPNGSGKSNLMDAISFVLGEKTSNLRVKTLRDLIHGAPVGKPAANRAFVSMVYSEEGAEDRTFARVIVGGSSEYKINNKVVQLHEYSEELEKLGILIKARNFLVFQGAVESIAMKNPKERTALFEEISRSGELAQEYDKRKKEMVKAEEDTQFNYHRKKNIAAERKEAKQEKEEADRYQRLKDEVVRAQVQLQLFKLYHNEVEIEKLNKELASKNKEIEKDKKRMDKVEDELKEKKKELGKMMREQQQIEKEIKEKDSELNQKRPQYIKAKENTSHKIKKLEAAKKSLQNAQKHYKKRKGDMDELEKEMLSVEKARQEFEERMEEESQSQGRDLTLEENQVKKYHRLKEEASKRAATLAQELEKFNRDQKADQDRLDLEERKKVETEAKIKQKLREIEENQKRIEKLEEYITTSKQSLEEQKKLEGELTEEVEMAKRRIDEINKELNQVMEQLGDARIDRQESSRQQRKAEIMESIKRLYPGSVYGRLIDLCQPTQKKYQIAVTKVLGKNMDAIIVDSEKTGRDCIQYIKEQRGEPETFLPLDYLEVKPTDEKLRELKGAKLVIDVIRYEPPHIKKALQYACGNALVCDNVEDARRIAFGGHQRHKTVALDGTLFQKSGVISGGASDLKAKARRWDEKAVDKLKEKKERLTEELKEQMKAKRKEAELRQVQSQAHGLQMRLKYSQSDLEQTKTRHLALNLQEKSKLESELANFGPRINDIKRIIQSREREMKDLKEKMNQVEDEVFEEFCREIGVRNIREFEEEKVKRQNEIAKKRLEFENQKTRLGIQLDFEKNQLKEDQDKVHMWEQTVKKDENEIEKLKKEEQRHMKIIDETMAQLQDLKNQHLAKKSEVNDKNHEMEEIRKKLGGANKEMTHLQKEVTAIETKLEQKRSDRHNLLQACKMQDIKLPLSKGTMDDISQEEGSSQGEDSVSGSQRISSIYAREALIEIDYGDLCEDLKDAQAEEEIKQEMNTLQQKLNEQQSVLQRIAAPNMKAMEKLESVRDKFQETSDEFEAARKRAKKAKQAFEQIKKERFDRFNACFESVATNIDEIYKALSRNSSAQAFLGPENPEEPYLDGINYNCVAPGKRFRPMDNLSGGEKTVAALALLFAIHSYKPAPFFVLDEIDAALDNTNIGKVANYIKEQSTCNFQAIVISLKEEFYTKAESLIGVYPEQGDCVISKVLTFDLTKYPDANPNPNEQ
B2: DDX49 (protein, UniProt Q9Y6V7 1-483, looked up)
Probable ATP-dependent RNA …: MAGFAELGLSSWLVEQCRQLGLKQPTPVQLGCIPAILEGRDCLGCAKTGSGKTAAFVLPILQKLSEDPYGIFCLVLTPTRELAYQIAEQFRVLGKPLGLKDCIIVGGMDMVAQALELSRKPHVVIATPGRLADHLRSSNTFSIKKIRFLVMDEADRLLEQGCTDFTVDLEAILAAVPARRQTLLFSATLTDTLRELQGLATNQPFFWEAQAPVSTVEQLDQRYLLVPEKVKDAYLVHLIQRFQDEHEDWSIIIFTNTCKTCQILCMMLRKFSFPTVALHSMMKQKERFAALAKFKSSIYRILIATDVASRGLDIPTVQVVINHNTPGLPKIYIHRVGRTARAGRQGQAITLVTQYDIHLVHAIEEQIKKKLEEFSVEEAEVLQILTQVNVVRRECEIKLEAAHFDEKKEINKRKQLILEGKDPDLEAKRKAELAKIKQKNRRFKEKVEETLKRQKAGRAGHKGRPPRTPSGSHSGPVPSQGLV

Columns and labels:
3×MBT domain of L3MBTL1 = assay: Triple SILAC pull-down, 3xMBT/3xMBTD355N ratio (cytoplasmic, nuclear and chromatin fractions of 293T cells); format: binding, human; conditions: SILAC ratio 3xMBT vs 3xMBTD355N pull-down, 293T cells, all values in log base 2; for 3xMBT/D355N UNC Heavy: experiment with UNC0638 in heavy SILAC media; for 3xMBT/D355N UNC Light: experiment with UNC0638 in light SILAC media;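 for all read-outs here: proteins quantified with MaxQuant, requiring at least two unique peptides and quantification in both label directions, normalized to the mean of proteins from a digested loading control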
G9a and GLP = target: T1, G9a and GLP (Homo sapiens, UniProt Q96KQ7+Q9H9B1); assay: Triple SILAC pull-down after UNC0638 treatment of 293T cells, DMSO/UNC0638 ratio of protein captured by 3×MBT; format: cell-based; design: endogenous in cells; host or cells: HEK 293T; conditions: all values in log base 2; for Relative to UNC0638 UNC Heavy / Relative to UNC0638 UNC Light: SILAC ratio DMSO relative to UNC0638, pull-down with 3xMBT; for Relative to UNC0638 UNC Heavy: UNC0638 in heavy SILAC media; for Relative to UNC0638 UNC Light: UNC0638 in light SILAC media; for Relative to UNC0638 Average: average of UNC Light and UNC Heavy experiments;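 for all read-outs here: mass spectrometry (Q-Exactive) SILAC quantitation, DMSO/UNC0638 ratio computed after subtracting 3×MBTD355N mutant pull-down background, only proteins with at least twofold 3×MBT over mutant signal considered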
T1 sequence (Q96KQ7 2-1210 limits assumed): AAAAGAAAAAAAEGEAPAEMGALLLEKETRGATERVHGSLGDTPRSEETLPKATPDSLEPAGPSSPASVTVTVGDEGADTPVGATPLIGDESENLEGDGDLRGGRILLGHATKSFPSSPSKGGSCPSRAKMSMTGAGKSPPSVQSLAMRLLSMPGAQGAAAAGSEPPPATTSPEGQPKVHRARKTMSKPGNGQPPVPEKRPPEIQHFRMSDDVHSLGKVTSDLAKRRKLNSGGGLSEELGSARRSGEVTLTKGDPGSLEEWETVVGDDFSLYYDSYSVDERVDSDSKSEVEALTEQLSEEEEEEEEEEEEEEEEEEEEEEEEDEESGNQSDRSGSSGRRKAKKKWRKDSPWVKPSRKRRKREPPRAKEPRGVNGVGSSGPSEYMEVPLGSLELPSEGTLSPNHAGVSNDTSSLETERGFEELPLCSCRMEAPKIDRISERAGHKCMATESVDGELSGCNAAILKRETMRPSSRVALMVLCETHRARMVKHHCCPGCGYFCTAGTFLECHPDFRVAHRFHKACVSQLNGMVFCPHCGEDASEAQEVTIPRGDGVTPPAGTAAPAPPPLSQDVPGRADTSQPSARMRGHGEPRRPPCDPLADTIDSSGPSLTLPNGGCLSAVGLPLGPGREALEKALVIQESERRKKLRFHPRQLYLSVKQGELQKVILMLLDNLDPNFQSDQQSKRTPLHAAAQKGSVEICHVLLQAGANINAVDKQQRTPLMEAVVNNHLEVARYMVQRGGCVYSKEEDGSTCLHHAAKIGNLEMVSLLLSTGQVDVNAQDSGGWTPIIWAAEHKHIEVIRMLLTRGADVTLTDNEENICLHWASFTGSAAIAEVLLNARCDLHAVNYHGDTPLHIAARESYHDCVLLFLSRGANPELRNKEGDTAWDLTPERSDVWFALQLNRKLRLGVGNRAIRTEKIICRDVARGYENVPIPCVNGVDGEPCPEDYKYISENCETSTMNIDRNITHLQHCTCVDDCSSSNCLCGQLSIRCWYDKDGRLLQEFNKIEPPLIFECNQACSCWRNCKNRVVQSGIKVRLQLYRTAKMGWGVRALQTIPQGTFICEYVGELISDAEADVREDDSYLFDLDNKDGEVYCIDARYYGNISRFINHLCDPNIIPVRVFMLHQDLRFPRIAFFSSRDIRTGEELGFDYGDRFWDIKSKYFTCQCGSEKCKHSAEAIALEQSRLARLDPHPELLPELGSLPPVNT
T1 sequence (Q9H9B1 2-1298 limits assumed): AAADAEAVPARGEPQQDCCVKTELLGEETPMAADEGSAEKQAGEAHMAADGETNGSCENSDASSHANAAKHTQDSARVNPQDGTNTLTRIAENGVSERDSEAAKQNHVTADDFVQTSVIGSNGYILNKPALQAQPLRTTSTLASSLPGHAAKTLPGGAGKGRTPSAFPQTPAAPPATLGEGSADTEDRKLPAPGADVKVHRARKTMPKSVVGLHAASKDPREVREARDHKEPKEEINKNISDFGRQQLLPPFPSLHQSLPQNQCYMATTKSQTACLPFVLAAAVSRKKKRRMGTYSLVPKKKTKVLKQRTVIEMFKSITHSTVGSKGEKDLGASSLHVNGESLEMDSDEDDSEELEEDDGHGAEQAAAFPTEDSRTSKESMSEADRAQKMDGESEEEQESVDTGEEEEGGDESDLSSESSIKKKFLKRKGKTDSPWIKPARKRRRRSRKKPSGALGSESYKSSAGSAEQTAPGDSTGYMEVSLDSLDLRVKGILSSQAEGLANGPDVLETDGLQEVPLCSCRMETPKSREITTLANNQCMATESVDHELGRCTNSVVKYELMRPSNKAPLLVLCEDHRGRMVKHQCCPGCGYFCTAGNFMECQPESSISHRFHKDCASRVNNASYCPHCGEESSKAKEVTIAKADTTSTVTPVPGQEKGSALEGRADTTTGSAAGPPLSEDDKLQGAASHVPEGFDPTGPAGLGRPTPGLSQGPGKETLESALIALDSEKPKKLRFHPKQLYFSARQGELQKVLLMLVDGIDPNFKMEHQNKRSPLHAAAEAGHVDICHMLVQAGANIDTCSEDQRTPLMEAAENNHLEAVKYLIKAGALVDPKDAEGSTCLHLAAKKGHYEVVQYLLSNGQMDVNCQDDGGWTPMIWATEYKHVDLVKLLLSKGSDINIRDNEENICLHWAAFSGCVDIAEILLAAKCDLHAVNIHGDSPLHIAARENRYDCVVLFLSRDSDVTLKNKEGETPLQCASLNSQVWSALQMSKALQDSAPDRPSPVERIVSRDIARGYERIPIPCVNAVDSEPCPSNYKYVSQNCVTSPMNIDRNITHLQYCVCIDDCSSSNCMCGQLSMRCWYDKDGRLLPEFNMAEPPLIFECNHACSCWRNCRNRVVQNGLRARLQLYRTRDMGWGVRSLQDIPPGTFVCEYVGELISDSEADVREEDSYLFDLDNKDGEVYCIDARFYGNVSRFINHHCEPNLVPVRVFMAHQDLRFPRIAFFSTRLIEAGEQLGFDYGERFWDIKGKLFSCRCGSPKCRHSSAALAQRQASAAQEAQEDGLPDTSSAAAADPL

Molecule | 3xMBT/D355N UNC Heavy (3×MBT domain of L3MBTL1) [log base 2] | 3xMBT/D355N UNC Light (3×MBT domain of L3MBTL1) [log base 2] | Relative to UNC0638 UNC Heavy (G9a and GLP) [log base 2] | Relative to UNC0638 UNC Light (G9a and GLP) [log base 2] | Relative to UNC0638 Average (G9a and GLP) [log base 2]
B1 | 1.31 | 1.83 | −0.05 | −0.01 | −0.03
B2 | 3.17 | 1.77 | 0.43 | −0.49 | −0.03
